From patent publication US20030017991

Target: APP695 with C-terminal dilysine and the mutation KM-DA594-597 to SYEA594-597, expressed in HEK 293 derivative cells, P05067
Sequence (P05067 whole entry, looked up, change not shown, tested part not stated): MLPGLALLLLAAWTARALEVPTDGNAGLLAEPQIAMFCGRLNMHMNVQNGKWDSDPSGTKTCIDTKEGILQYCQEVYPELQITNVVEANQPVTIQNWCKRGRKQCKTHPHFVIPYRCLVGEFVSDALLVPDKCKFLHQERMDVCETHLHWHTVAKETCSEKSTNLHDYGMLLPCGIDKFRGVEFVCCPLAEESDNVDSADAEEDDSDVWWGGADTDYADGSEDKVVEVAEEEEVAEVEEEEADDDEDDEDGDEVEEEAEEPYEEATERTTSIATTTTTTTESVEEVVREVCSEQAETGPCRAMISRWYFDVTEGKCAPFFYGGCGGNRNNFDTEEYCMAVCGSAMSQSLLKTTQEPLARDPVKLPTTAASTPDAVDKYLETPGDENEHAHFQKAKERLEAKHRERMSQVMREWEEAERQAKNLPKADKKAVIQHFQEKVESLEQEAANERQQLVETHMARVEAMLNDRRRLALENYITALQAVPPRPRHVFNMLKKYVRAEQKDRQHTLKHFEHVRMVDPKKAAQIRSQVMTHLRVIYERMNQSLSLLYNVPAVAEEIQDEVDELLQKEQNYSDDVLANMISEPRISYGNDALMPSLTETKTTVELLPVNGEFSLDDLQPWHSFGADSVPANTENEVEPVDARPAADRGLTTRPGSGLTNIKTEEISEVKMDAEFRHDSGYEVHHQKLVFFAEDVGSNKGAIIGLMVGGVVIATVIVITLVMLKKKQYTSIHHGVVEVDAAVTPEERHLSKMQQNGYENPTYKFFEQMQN

B1: Hu-Asp2 expressed in a stable HEK-293 derivative cell line (higher levels of Hu-Asp2) (protein)
chain: ETDEEPEEPGRRGSFVEMVDNLRGKSGQGYYVEMTVGSPPQTLNILVDTGSSNFAVGAAPHPFLHRYYQRQLSSTYRDLRKGVYVPYTQGKWEGELGTDLVSIPHGPNVTVRANIAAITESDKFFINGSNWEGILGLAYAEIARPDDSLEPFFDSLVKQTHVPNLFSLHLCGAGFPLNQSEVLASVGGSMIIGGIDHSLYTGSLWYTPIRREWYYEVIIVRVEINGQDLKMDCKEYNYDKSIVDSGTTNLRLPKKVFEAAVKSIKAASSTEKFPDGFWLGEQLVCWQAGTTPWNIFPVISLYLMGEVTNQSFRITILPQQYLRPVEDVATSQDDCYKFAISQSSTGTVMGAVIMEGFYVVFDRARKRIGFAVSACHVHDEFRTAAVEGPFVTLDMEDCGYNIPQTDESTLMTIAYVMAAICALFMLPLCLMVCQWRCLRCLRQQHDDFADDISLLK
production of the β-secretase cleavage product CTF-99 (Western blot with antibody C8): both mutant APP variants were proficiently cleaved by Asp2
